# Reference: patent publication US20150216933A1, “HEMATOPOIETIC STEM CELL GROWTH FACTOR” (DUKE UNIVERSITY, priority 2008, published 2015)
# Columns and labels:
# [1] = test system: long-term repopulating HSCs; assay: Secondary competitive repopulating transplant assay; assay type: in vivo, mouse
# Protocol: Secondary competitive transplant assays were performed using whole BM harvested from primary CD45. 2^+ mice at 24 weeks following transplantation with either CD45. 1^+ BM 34^−KSL cells or the progeny of 34^−KSL cells following culture with TSF alone or TSF+PTN. Secondary recipient CD45. 2^+ C57Bl6 mice were irradiated with 950 cGy TBI and PB analysis of donor cell engraftment was performed at 12 weeks post-transplantation in secondary mice.
# In order to confirm that PTN caused the amplification of long-term repopulating HSCs with serial repopulating capacity, secondary transplants were performed. Importantly, secondary CD45.
# BM 34−KSL cells = assay: Liquid suspension culture of BM 34−KSL cells with TSF with and without PTN x 7 days; assay type: cell-based, mouse
# Protocol: The above “loss of function” studies strongly implicated PTN as a secreted growth factor for HSCs.
# Purified BM 34^−KSL cells were isolated from C57Bl6 and B6.SJL mice (Jackson Laboratory, Bar Harbor, Me.) via flow cytometric cell sorting as previously described (Reya, et al, Nature 423:409-14 (2003), Salter et al, Blood 113:2104-7 (2009)). Liquid suspension cultures of BM 34^−KSL cells were supplemented with IMDM+10% FBS+1% pcn/strp+20 ng/ml thrombopoietin, 120 ng/ml SCF, and 50 ng/ml flt-3 ligand (“TSF” media) with and without recombinant (human) PTN (R&D Systems, Minneapolis, Minn.). Non-contact HUBEC cultures were conducted using 0.4 μm transwell inserts (Corning, Lowell Mass.) and supplemented with TSF media with and without goat anti-PTN or isotype control antibody (R&D). Phenotypic analysis for KSL cells was performed as previously described (Chute et al, Blood 109:2365-72 (2007), Salter et al, Blood 113:2104-7 (2009)).
# Since PTN has no known function in regulating hematopoiesis (Meng et al, Proc Natl Acad Sci USA 97: 2603-8 (2000)), an examination was first made as to whether BM stem/progenitor cells expressed one or more of the PTN receptors, receptor protein tyrosine phosphatase β/ζ (RPTP β/ζ), Syndecan or anaplastic lymphoma kinase (ALK) (Stoica et al, J Biol Chem 276:16772-9 (2001), Landgraf et al, J Biol Chem 283:25036-45 (2008)). The majority of BM MNCs and c-kit+sca-1^+lin^− (KSL) stem/progenitor cells expressed RPTP β/ζ (n=3, mean 87.0%±8.8 and 89%, respectively; FIG. 6A), whereas neither population expressed Syndecan or ALK (data not shown). In order to determine whether PTN might be a growth factor for HSCs, C57Bl6 BM CD34^−KSL cells, which are highly enriched for HSCs (Kiel et al, Nat Rev Immunol 8:290-301 (2008), Salter et al, Blood 113:2104-7 (2009)), were isolated by FACS and placed in liquid suspension culture with 20 ng/mL thrombopoietin, 120 ng/mL SCF and 50 ng/mL Flt-3 ligand (“TSF”) with or without 10, 100 or 1000 ng/mL PTN.
# β-catenin = β-catenin assays; assay type: cell-based, mouse; settings: 34−KSL cells treated with PTN (data not shown)
# Excerpt: In order to determine a potential mechanism through which PTN mediates HSC expansion, an examination was made as to whether PTN altered pathways that are known to be affected by RPTPβ/ζ (Meng et al, Proc Natl Acad Sci USA 97: 2603-8 (2000), Stoica et al, J Biol Chem 276:16772-9 (2001), Landgraf et al, J Biol Chem 283:25036-45 (2008), Deuel et al, Arch Biochem Biophys 397:162-71 (2002)). Canonical PTN signaling occurs via binding and inactivation of RPTPβ/ζ (Meng et al, Proc Natl Acad Sci USA 97: 2603-8 (2000)), which can facilitate the tyrosine phosphorylation of several intracellular substrates, including Akt and β-catenin (Souttou et al, J Biol Chem 272:19588-93 (1997), Gu et al, FEBS Lett 581:382-8 (2007)). […] BM 34^− KSL cells were treated with TSF with and without 100 ng/mL PTN in the presence and absence of 10 μM wortmannin, a PI 3-kinase inhibitor (Souttou et al, J Biol Chem 272:19588-93 (1997)).
# 34−KSL cells = assay: Competitive repopulating assay at 4 weeks (Example 1); assay type: in vivo, mouse; settings: lineage repopulation in transplanted mice
# Excerpt: 34^−KSL cells from B6.SJL mice, carrying the CD45.1 allele, were sorted into 96-well U-bottomplates (BD) containing IMDM+10% FBS+1% pcn/strp. Day 0 34^−KSL cells were either isolated for injection into recipient animals, or placed into cultures containing TSF, TSF+recombinant PTN, co-culture with HUBECs+goat IgG, or HUBECs+goat anti-PTN. Recipient C57BL6 animals, expressing the CD45.2 allele, received an LD100/30 dose of 950 cGy total body irradiation (TBI) using a Cs137 irradiator and then transplanted via tail vein injection with 10, 30 or 100 34^−KSL cells or their progeny following culture. A rescue dose of 1×10^5 non-irradiated CD45.2 MNCs were co-injected into recipient mice. Multi-lineage hematologic reconstitution was monitored in the peripheral blood (PB) by flow cytometry, as previously described, at 4, 8, 12, and 24 weeks posttransplant. PB was collected via submandibular puncture; cells were treated with RBC lysis buffer (Sigma-Aldrich), and washed twice prior to staining with FITC- or PE-CD45.1, FITC-CD45.2, PE-anti-Thy 1.2, APC-anti-B220, APC-anti-Ter-119, or PE-anti-Mac-1 and PE-anti-Gr1. Animals were considered to be engrafted if donor CD45.1 cells were present at >1% for all lineages (Zhang et al, Nat. Med. 12:240-245 (2006)).
# For the competitive repopulating assays, recipient CD45. […]
# [2] = test system: BM stem and progenitor cells; assay: In vivo PTN study in mice irradiated with 700 cGy TBI; parameters: species or system mouse; settings: 2 μg PTN intraperitoneally daily x 7 days, day +7
# Protocol: Adult B6.SJL mice received a single fraction of 700 cGy TBI and were then treated either with PBS (saline) or 2 μg PTN intraperitoneally daily ×7 days (beginning 4 hours post irradiation). At day +7, the mice were sacrificed and total viable BM cells were quantified. Flow cytometric analysis was performed to estimate the percentage of BM KSL cells in each femur (Chute at al, Blood 109:2365-72 (2007), Salter et al, Blood 113:2104-7 (2009)). Colony forming cell (CFC) assays were performed using MethoCult M3434 media (Stem Cell Technologies, Vancouver, BC) as previously described (Chute et al, Blood 109:2365-72 (2007), Salter et al, Blood 113:2104-7 (2009)). Long-term cultureinitiating cell (LTC-IC) assays were performed as follows: Murine M2-10B4 (ATCC CRL-1972) BM stromal cells were plated in a 24 well dish and irradiated with 1500 cGy. Limiting dilutions (45,000, 90,000, and 180,000) of BM MNCs from irradiated mice that were treated with either PTN or PBS were added to the stromal cell layers and maintained in MyeloCult M5300 media (Stem Cell Technologies) with weekly half-medium changes for 4 weeks. At 4 weeks, the non-adherent and adherent cells (15,000 cells/dish) were collected and plated into 3×35 mm dishes (MethoCult, StemCell Technologies). After two weeks, hematopoietic colonies were counted and scored.
# Since the addition of PTN was sufficient to induce HSC amplification in vitro a test was made as to whether administration of PTN could augment BM HSC regeneration in vivo following injury.
# [3] = 100 ng/mL PTN added to TSF, 7 days
# [4] = increasing doses (10, 100, 1000 ng/mL) of rPTN with TSF, Example 1
molecule,measurement,setting,value
"PTN: Pleiotrophin, heparin binding growth factor; recombinant human PTN purchased from R&D systems (protein, UniProt P21246 33-168, looked up) Pleiotrophin: GKKEKPEKKVKKSDCGEWQWSVCVPTSGDCGLGTREGTRTGAECKQTMKTQRCKIPCNWKKQFGAECKYQFQAWGECDLNTALKTRTGSLKRALHNAECQKTVTISKPCGKLTKPKPQAESKKKKKEGKKQEKMLD",multilineage differentiation in secondary mice,[1]; 12 weeks,normal multilineage differentiation
same,"CD45.1+ cell engraftment in secondary mice, fold higher vs 34−KSL cell group or TSF alone group","[1]; 12 weeks post-transplant, BM harvested at 24 weeks from primary recipients",> 10 fold
same,increase in total KSL stem/progenitor cells compared to TSF alone,BM 34−KSL cells; [3],17.7 fold
same,increase in total cells compared to TSF alone,BM 34−KSL cells; [3],6.4 fold
same,"total cells, % KSL cells and total KSL cells",BM 34−KSL cells; addition of 10 to 100 ng/mL PTN to TSF,dose responsive increase
same,KSL cells in culture compared to the progeny of cytokines alone,BM 34−KSL cells; [4],significant increase
same,total cells in culture compared to the progeny of cytokines alone,BM 34−KSL cells; [4],significant increase
same,activated form of β-catenin,β-catenin,no increase
same,multilineage differentiation potential of HSCs,34−KSL cells,did not alter the normal multilineage differentiation potential
same,increase in BM colony forming cells (CFCs),[2],2.9 fold
same,increase in long-term culture-initiating cells (LTC-ICs) / BM HSC content,[2],11 fold
same,increase in primitive BM KSL cells compared to controls,[2],5.6 fold
same,increase in total BM cells compared to controls,[2],2.3 fold
